Patent US20090233266A1

Biological target: C-terminal domain of the NS2 protein of hepatitis C virus, amino acids 94 to 217 of NS2 from HCV genotype 1a strain H77 (residues 903 to 1026 of the HCV polyprotein) (hepatitis C virus genotype 1a strain H77) (UniProt P27958)
Assay: X-ray crystal structure

C-terminal domain of the NS2 protein of hepatitis C virus, amino acids 94 to 217 of NS2 from HCV genotype 1a strain H77 (residues 903 to 1026 of the HCV polyprotein) (from UniProt P27958) (enzyme)
total buried surface area: 1100 Å^2
